Assay results reported in patent US20230040568A1 (ALBERT EINSTEIN COLLEGE OF MEDICINE, published 2023).

B1: KIR3DL3 expressed on cells (3T3 cell line expressing KIR3DL3; KIR3DL3+ NK92 cells; primary KIR3DL3+ NK cells and CD8 T cells) (receptor)
chain: QDKPFLSAWPGTVVSEGQHVTLQCRSRLGFNEFSLSKEDGMPVPELYNRIFRNSFLMGPVTPAHAGTYRCCSSHPHSPTGWSAPSNPVVIMVTGVHRKPSLLAHPGPLVKSGETVILQCWSDVRFERFLLHREGITEDPLRLVGQLHDAGSQVNYSMGPMTPALAGTYRCFGSVTHLPYELSAPSDPLDIVVVGLYGKPSLSAQPGPTVQAGENVTLSCSSRSLFDIYHLSREAEAGELRLTAVLRVNGTFQANFPLGPVTHGGNYRCFGSFRALPHAWSDPSDPLPVSVTGNSRNLHVLIGTSVVIIPFAILLFFLLHRWCANKKNAVVMDQEPAGNRTVNREDSDEQDPQEVTYAQLNHCVFTQRKITRPSQRPKTPPTDTSV
notes: also called KIR3DL3-expressing 3T3 cells; KIR3DL3 WT
B2: monoclonal 8G7 (antibody, V domains shown)
VH: EVMLVESGGGLVKPGGSLKLSCAASGFTFSTYAMSWVRQTPEKRLEWVATILSGGNYTYYPDSVKGRFTISRDNAKNTLNLQMSSLRSEDTAMYYCVIPYGSSPFDYWGQGTTLTVS
VL: SIVMTQTPKFLLVSAGDRVTITCKASQSVSNDVAWYQQKPGQSPKLLIYYASNRYTGVPDRFTGSGYGTDFTFTISTVQAEDLAVYFCQQDYSSPWTFGGGTKLEIK
notes: Mouse hybridoma mAb; also called anti-KIR3DL3 mAb clone 8G7
B3: monoclonal 14F8 (antibody, V domains shown)
VH: QVQLQQSGPEVVRPGVSVKISCKGSGYTFTDYTMHWVKQSHAKSLEWIGVISTYNGNTNYNQNFEGKATMTVDKSSSTAYMELARLTSEDSAIYYCARERGGDGYYSAVDYWGQGTSVTVS
VL: SIVMTQTPKFLLVSAGDRVTITCKASQSVINDVAWYQQKPGQSPKLLIYYASNRYTGVPDRFTGSGYGTDFTFTISTVQAEDLAVYFCQQDYSSPYTFGGGTKLEIKR
B4: monoclonal 29H7 (antibody, V domains shown)
VH: QVQLQQSGPEVVRPGVSVKISCKGSGYTFTDYVMHWVKQSHGKSLEWIGVISTYNGNTNYNQKFKGKATMTVDKSSSTAYMELARLTSEDSAIYYCARERGGDGYYSAMDYWGQGTSVTVSS
VL: SIVMTQTPKFLLVSAGDRVTIACKASQSVINNVAWYQQKPGQSPELLIYYASNRYTGVPDRFTGSGYGTDFTFTITTVQAEDLAVYFCQQDYSSPYTFGGGTKLEIKR
notes: Mouse hybridoma mAb; Entries include (partial) leader
B5: monoclonal 30D10 (antibody, V domains shown)
VH: EVQLQQSGAELVRPGALVKLSCKASGFNFKDYFMHWVKQRPEQGLEWIGWIDPENGNTIYEPKFQGKASITADTSSNTAYLQLSSLTSEDTAVYYCARGGVGHWYFDVWGAGTTVTVS
VL: DIVLTQSPASLAVSLGQRATISCKASQSVDYDGDSYMNWYQQKPGQPPKLLIYVASNLKSGIPARFSGSGCGTDFTLNIHPVEEEDGATYYCQQTNEDPWTFGGGTKLEIK
notes: Mouse hybridoma mAb; VH entry includes leader and vector-derived residues
B6: monoclonal 51C3 (antibody, V domains shown)
VH: EVQLQQSGPELVKPGASVKISCKTSGYTFTEYIMHWVKQSHGKSLEWIGGINPNNGGTNYNQKFKGKATLTVDTSSSIAYMELRSLTSEDSAVYYCARDDGYYVKFAYWGQGTLVTVSA
VL: SIVMTQTPKFLLVSAGDRVTITCKASQSVINDVAWYQQKPGQSPKLLIYYASNRYTGVPDRFTGSGYGTDFTFTISTVQAEDLAVYFCQQDYSSPFTFGSGTKLEIKR
notes: Mouse hybridoma mAb; Entries include leader
B7: monoclonal 26E10 (antibody, V domains shown)
VH: QAYLQQSGAELVRSGASVKMSCKASGYTFTSYNIHWVKQTPGQGLEWIGYIYPGDGVTNYNQKFKGKATLTADTSSSTAYMQISSLTSEDSAVYFCARSGNYGNYEGFAYWGQGTLVTVSA
VL: DIKMTQSPSSMYASLGERVTITCKASQDTNSYLSWFQQKPGKSPKTLIYRANRLVDGVPSRFSGSGSGQDYSLTISSLEYEDMGIYYCLQYDEFPYTFGGGTKLEIK
B8: monoclonal 31C4 (antibody, V domains shown)
VH: QAYLQQSGAELVRSGASVKMSCKASGYTFTSYNMHWVKQTPGQGLEWIGYIFPGDGGTNYNQKFKGKATLTADTSSSTAYMQISSLTSEDSAVYFCARSGNYGNYEGFAYWGQGTLVTVSA
VL: DIKMTQSPSSMYASLGERVTITCKASQDINSYLSWFQQKPGKSPKTLIYRANRLVDGVPSRFSGSGSGQDYSLTISSLEYEDMGIYYCLQYDEFPYTFGGGTKLEIKR
notes: Mouse hybridoma mAb; Entries include leader (and vector-derived residues in the VL)
B9: monoclonal 34B10 (antibody, V domains shown)
VH: EVKLVESGGVLVQPGGSLRLSCATSGFTFTDYYMGWVRQPPGKALEWLGFIRNKANGYTTESSASVKGRFTISRDNSQSILYLQMNTLRAEDSATYYCARDYYSGSSLDYWGQGTTLTVSS
VL: DIQMTQTTSSLSASLGDRVTISCRASQDISNYLNWYQQKPDGTVKLLIYYTSRLHSGVPSRFSGSGSGTDYSLSISNLEQEDIATYFCQQGYTLPYTFGGGTKLEIKR
notes: as for B6
B10: monoclonal 37A3 (antibody, V domains shown)
VH: QVQLVETGGGLVRPGNSLKLSCVTSGFTFSNYRMHWLRQPPGKRLEWIAVITVKSDNYGANFAESVKGRFTISRDDSKSSVYLQMNRLREEDTATYYCSRGSGPGFAYWGQGTLVTVS
VL: DIVMTQSPSSLSVSAGEKVTMSCKSSQSLLNSGNQKNYLAWYQQKPGQPPKLLIYGASTRESGVPDRFTGSGSGTDFTLTISSVQAEDLAVYYCQNDHSYPFTFGSGTKLEIK
notes: Mouse hybridoma mAb
B11: monoclonal 12A10 (antibody, V domains shown)
VH: QAYLQQSGAELVRSGASVKMSCKASGYTFTSYNMHWVKQTPGQGLEWIGYIFPGDGGTNYNQKFKGKATLTADTSSSTAYMQISSLTSEDSAVYFCARSGYYGNYEGFAYWGQGTLVTVSA
VL: DIKMTQSPSSMYASLGERVTITCKASQDINSYLSWFQQKPGKSPKTLIYRANRLVDGVPSRFSGSGSGQDYSLTISSLEYEDMGIYYCLHYAEFPYTFGGGTKLEIKR
B12: monoclonal 3B7 (antibody, V domains shown)
VH: QVQLQQSGPEVVRPGVSVKISCKGSGYTFSDYTMHWVKQSHAKSLEWIGVISTDNGNTNYNQKFKGKATMTVDKSSSTAYMELARLTSEDSAIYYCAREARDYGSIYALDYWGQGTSVTVS
VL: DIQMTQSPASLSASVGETVTITCRASGNIHNYLAWYQQKQGKSPQLLVYNAKTLADGVPSRFSGSGSGTQYSLKINNLQPEDFGNYYCQHFWSTPWTFGGGTKLEIKR
notes: Mouse hybridoma mAb; Entries include leader; Counted on the printed text
B13: monoclonal 11G8 (antibody, V domains shown)
VH: QVQLQQSGPDLVRPGVSVKISCKGSGYTFTDYAMHWVKQSHAKSLEWIGVISTDSGTTNYNQKFKGKATMTVDKSSSTAYMDLARLTSEDSAIYYCARDSSYYVRFSYWGQGTLVTVSA
VL: SIVMTQTPKFLLVSVGDRVTITCKASQSVSNDVAWYQQKPGQSPKLLIYYASNRYTGVPDRFTGSGYGTDFTFTISTVQAEDLAVYFCQQDYSSPWTFGGGTKLEIKR
notes: as for B6
B14: KIR3DL3 D0-Ig fusion polypeptide (Fc fusion)
chain: QDKPFLSAWPGTVVSEGQHVTLQCRSRLGFNEFSLSKEDGMPVPELYNRIFRNSFLMGPVTPAHAGTYRCCSSHPHSPTGWSAPSNPVVIMVTGVHRKPSLLA
notes: Expressed in an S2 system; also called KIR3DL3 DO-Ig; KIR3DL3 D0(Q26-A128)-Ig; not shown: human IgG1 Fc tag
B15: KIR3DL3 D0D1D2-Ig fusion polypeptide (Fc fusion)
chain: QDKPFLSAWPGTVVSEGQHVTLQCRSRLGFNEFSLSKEDGMPVPELYNRIFRNSFLMGPVTPAHAGTYRCCSSHPHSPTGWSAPSNPVVIMVTGVHRKPSLLAHPGPLVKSGETVILQCWSDVRFERFLLHREGITEDPLRLVGQLHDAGSQVNYSMGPMTPALAGTYRCFGSVTHLPYELSAPSDPLDIVVVGLYGKPSLSAQPGPTVQAGENVTLSCSSRSLFDIYHLSREAEAGELRLTAVLRVNGTFQANFPLGPVTHGGNYRCFGSFRALPHAWSDPSDPLPVSVTGNSRNLHVL
notes: Expressed in an S2 system; also called whole extracellular portion of KIR3DL3; whole extracellular part of KIR3DL3; not shown: human IgG1 Fc tag
B16: TMIGD2 expressed on 3T3 cells (receptor, UniProt Q96BF3 23-282, looked up)
chain: LSVQQGPNLLQVRQGSQATLVCQVDQATAWERLRVKWTKDGAILCQPYITNGSLSLGVCGPQGRLSWQAPSHLTLQLDPVSLNHSGAYVCWAAVEIPELEEAEGNITRLFVDPDDPTQNRNRIASFPGFLFVLLGVGSMGVAAIVWGAWFWGRRSCQQRDSGNSPGNAFYSNVLYRPRGAPKKSEDCSGEGKDQRGQSIYSTSFPQPAPRQPHLASRPCPSPRPCPSPRPGHPVSMVRVSPRPSPTQQPRPKGFPKVGEE
notes: whole, on cells
B17: TMIGD2-mIg fusion polypeptide (Fc fusion, UniProt Q96BF3 23-150, looked up)
chain: LSVQQGPNLLQVRQGSQATLVCQVDQATAWERLRVKWTKDGAILCQPYITNGSLSLGVCGPQGRLSWQAPSHLTLQLDPVSLNHSGAYVCWAAVEIPELEEAEGNITRLFVDPDDPTQNRNRIASFPG
notes: not shown: mouse Ig part (mIg), detected with anti-mouse IgG Fc

Target: T1, HHLA2 expressed on cells (3T3 cell line expressing HHLA2; HHLA2/K562) (UniProt Q9UM44 23-414, limits assumed)
T1 construct: whole, on cells
T1 sequence (looked up): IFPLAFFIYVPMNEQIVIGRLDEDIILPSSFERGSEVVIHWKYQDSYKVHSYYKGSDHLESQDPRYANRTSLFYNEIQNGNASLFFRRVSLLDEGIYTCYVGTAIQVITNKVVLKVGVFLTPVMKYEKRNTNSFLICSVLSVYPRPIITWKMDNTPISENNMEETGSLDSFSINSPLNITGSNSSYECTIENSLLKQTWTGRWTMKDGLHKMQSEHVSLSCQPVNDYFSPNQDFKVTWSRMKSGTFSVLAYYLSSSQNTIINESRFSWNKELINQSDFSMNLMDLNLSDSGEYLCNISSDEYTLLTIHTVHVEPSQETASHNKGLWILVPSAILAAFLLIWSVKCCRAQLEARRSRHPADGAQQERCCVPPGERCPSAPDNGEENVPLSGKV
Experiment: intercellular conjugate assay (FIG. 2B)

Does B1 bind?
Result: binds

Target: T2, KIR3DL3 protein (antigen of the affinity determination of Table 3) (human, UniProt Q8N743 26-325, limits assumed)
T2 construct: also called human KIR3DL3
Experiment: method and antigen format not stated

For B2, which Kd is on record?
Its Kd is 0.11 nM.

For B3, which Kd is on record?
The Kd was 0.69 nM.

B4 was tested. Which Kd did it give?
Its Kd is 1.13 nM.

With B5 as the binder, how does the Kd read?
The Kd was 0.16 nM.

For B6, which Kd is on record?
The Kd was 0.19 nM.

How did the Kd turn out when B7 was run?
The Kd was 0.17 nM.

Which Kd does the source give for B8 here?
Its Kd is 0.72 nM.

For B9, which Kd is on record?
Its Kd is 1.51 nM.

How did the Kd turn out when B10 was run?
Its Kd is 8.5 nM.

How did the Kd turn out when B11 was run?
Its Kd is 0.69 nM.

Which Kd does the source give for B12 here?
The Kd was 0.51 nM.

Which Kd does the source give for B13 here?
The Kd was 0.29 nM.

Target: T1, HHLA2 expressed on cells (3T3 cell line …)
Experiment: FACS, staining of 3T3 cells expressing HHLA2 (FIG. 2C)

Does B14 bind?
Result: binds

Does B15 bind?
Result: binds

Target: T3, HHLA2 EC-Ig-Fc fusion polypeptide (UniProt Q9UM44 23-344)
T3 construct: extracellular domain; also called whole extracellular part of HHLA2; not shown: Ig Fc part
T3 sequence (looked up): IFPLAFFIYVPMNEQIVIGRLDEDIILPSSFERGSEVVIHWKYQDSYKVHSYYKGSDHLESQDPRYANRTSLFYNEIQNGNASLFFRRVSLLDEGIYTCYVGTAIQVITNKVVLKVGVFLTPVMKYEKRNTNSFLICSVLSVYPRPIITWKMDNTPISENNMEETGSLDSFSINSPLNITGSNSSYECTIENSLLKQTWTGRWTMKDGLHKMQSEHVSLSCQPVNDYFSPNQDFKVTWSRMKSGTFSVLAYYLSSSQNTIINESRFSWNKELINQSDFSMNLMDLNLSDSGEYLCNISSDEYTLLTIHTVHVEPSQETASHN
Experiment: FACS, staining of 3T3 cells expressing TMIGD2 (FIG. 8)
Source text: To examine the binding of TMIGD2 to HHLA2, 3T3 cell lines expressing TMIGD2 were stained with a HHLA2 EC-Ig-Fc fusion polypeptide, a HHLA-2-IgV1-hIgG fusion polypeptide, or Ig (control) (FIG. 8).

Does B16 bind?
Result: binds

Target: T1, HHLA2 expressed on cells (3T3 cell line …)
Experiment: FACS on 3T3 cells expressing HHLA2, TMIGD2-mIg (FIGS. 3A-3B)
Method: FIG. 3A is a chart depicting mean fluorescent intensity (MFI) of 3T3 cells expressing HHLA2 that were incubated with TMIGD2-mIg fusion polypeptide or control mIgG at the indicated concentrations prior to staining with 10 μg/ml KIR3DL3-hIg followed by Allophycocyanin (APC)-conjugated anti-human IgG Fc.
FIG. 3B is a chart depicting MFI of 3T3 cells expressing HHLA2 that were incubated with KIR3DL3-hIg fusion polypeptide or control hIgG at the indicated concentrations prior to staining with 10 μg/ml TMIGD2-mIg followed by APC anti-mouse IgG Fc.

Does B17 bind?
Result: binds
